This note sets out measurements from patent publication US20240368574A1.

Experiment in all cases: cell-based or functional assay
Assay [1] deals with CD19-CAR-FRBl2 (1st generation CD19-CAR fused to two tandem FRBl domains, co-expressed with iCaspase9 from iC9-CAR(19).FRBl2).
The target in assay [2] is Her2-CAR-FRBl2 (1st generation Her2-CAR fused to two tandem FRBl domains).
Assay [3] concerns the target FRB.FKBP.ΔC9 expressed from pBP1310-pSFG.FRB.FKBP.ΔC9.T2A-ΔCD19.
For assay [4], the target named is FKBP.FRB.ΔC9 expressed from pBP1311-pSFG.FKBP.FRB.ΔC9.T2A-ΔCD19.
The target in assay [5] is ΔMyr.iMC (MyD88.CD40.Fv'.Fv) expressed from pBP0606-pSFG-k-ΔMyr.iMC.2A-ΔCD19 (human).
ΔMyr.iMC (MyD88.CD40.Fv'.Fv) expressed from pBP0606-pSFG-k-ΔMyr.iMC.2A-ΔCD19 (human), sequence (main, as listed by the source mutant): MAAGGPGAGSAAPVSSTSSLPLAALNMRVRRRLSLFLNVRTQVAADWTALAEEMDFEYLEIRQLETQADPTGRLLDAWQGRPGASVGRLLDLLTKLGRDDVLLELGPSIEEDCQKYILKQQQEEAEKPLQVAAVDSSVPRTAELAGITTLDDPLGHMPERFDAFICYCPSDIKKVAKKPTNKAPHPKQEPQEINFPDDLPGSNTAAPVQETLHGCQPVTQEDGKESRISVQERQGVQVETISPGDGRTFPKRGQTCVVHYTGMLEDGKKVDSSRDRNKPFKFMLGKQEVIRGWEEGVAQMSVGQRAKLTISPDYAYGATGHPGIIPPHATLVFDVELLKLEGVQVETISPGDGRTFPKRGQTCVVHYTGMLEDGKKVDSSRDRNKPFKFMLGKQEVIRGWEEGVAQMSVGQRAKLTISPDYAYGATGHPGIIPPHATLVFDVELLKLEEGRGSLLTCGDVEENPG

FRBL2.Caspase9 expressed from pBP0668-pSFG-FRBlx2.Caspase9.2A-Q.8stm.CD3zeta, sequence (chain, part): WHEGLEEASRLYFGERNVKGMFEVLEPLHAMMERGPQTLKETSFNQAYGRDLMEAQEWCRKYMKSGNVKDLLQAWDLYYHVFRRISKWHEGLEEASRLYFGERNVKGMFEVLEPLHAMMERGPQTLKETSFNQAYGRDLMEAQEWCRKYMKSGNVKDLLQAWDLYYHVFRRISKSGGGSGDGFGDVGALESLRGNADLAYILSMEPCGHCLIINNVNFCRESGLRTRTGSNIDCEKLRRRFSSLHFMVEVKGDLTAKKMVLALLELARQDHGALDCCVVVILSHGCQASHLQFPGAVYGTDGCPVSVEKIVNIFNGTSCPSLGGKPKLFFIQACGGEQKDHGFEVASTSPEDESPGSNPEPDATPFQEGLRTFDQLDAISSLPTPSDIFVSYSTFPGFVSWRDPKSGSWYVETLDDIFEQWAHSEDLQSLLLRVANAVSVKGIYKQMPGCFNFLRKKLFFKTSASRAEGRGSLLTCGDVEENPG
FRB.FKBP.ΔC9 expressed from pBP1310-pSFG.FRB.FKBP.ΔC9.T2A-ΔCD19, sequence (P55211 other isoform, or with tags, fused parts or gaps, stated change not applied): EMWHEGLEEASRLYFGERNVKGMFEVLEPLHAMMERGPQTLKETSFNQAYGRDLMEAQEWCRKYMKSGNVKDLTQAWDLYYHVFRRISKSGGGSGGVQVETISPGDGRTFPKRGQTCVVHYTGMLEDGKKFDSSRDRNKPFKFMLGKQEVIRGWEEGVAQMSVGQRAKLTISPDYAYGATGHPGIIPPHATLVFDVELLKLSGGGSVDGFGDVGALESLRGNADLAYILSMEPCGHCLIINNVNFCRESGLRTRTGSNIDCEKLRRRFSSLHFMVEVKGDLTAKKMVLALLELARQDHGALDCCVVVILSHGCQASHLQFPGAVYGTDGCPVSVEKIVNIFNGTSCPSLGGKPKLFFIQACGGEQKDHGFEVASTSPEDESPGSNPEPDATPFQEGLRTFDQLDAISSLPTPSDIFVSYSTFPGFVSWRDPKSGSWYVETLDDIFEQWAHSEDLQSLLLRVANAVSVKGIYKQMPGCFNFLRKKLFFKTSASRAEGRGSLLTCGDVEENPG
FKBP.FRB.ΔC9 expressed from pBP1311-pSFG.FKBP.FRB.ΔC9.T2A-ΔCD19, sequence (P55211 other isoform, or with tags, fused parts or gaps, stated change not applied): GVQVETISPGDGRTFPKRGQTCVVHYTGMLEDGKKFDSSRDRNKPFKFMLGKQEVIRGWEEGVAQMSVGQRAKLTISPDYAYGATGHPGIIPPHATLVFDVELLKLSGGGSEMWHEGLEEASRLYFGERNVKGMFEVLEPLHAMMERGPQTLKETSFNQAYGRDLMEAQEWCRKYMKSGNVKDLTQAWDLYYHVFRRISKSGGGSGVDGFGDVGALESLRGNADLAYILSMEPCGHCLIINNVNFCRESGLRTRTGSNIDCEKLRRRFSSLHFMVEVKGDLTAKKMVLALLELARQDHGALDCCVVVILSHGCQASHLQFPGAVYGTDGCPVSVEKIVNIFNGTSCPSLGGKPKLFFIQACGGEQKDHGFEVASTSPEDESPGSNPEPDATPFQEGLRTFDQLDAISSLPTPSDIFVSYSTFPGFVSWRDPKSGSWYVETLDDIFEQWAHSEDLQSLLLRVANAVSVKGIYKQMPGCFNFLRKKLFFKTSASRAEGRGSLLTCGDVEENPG

iCaspase-9 as used in Example 17: the SRα-SEAP reporter activity of transfected 293 cells after overnight rapamycin (small-molecule heterodimerizer) in assay [1] and in assay [2] was 50 % decrease in each case.
As to “FRB.FKBP.ΔC9 expressed from pBP1310-pSFG.FRB.FKBP.ΔC9.T2A-ΔCD19”, the rapamycin concentration (small molecule) at which the construct was still highly active, caspase 3/7 and SRα-SEAP assays in transfected 293 cells in assay [3] amounted to 100 pM.
For the substance “FKBP.FRB.ΔC9 expressed from pBP1311-pSFG.FKBP.FRB.ΔC9.T2A-ΔCD19”, the rapamycin concentration (small molecule) at which the construct was still highly active, caspase 3/7 and SRα-SEAP assays in transfected 293 cells in assay [4] was 100 pM.
In assay [5], “FRBL2.Caspase9 expressed from pBP0668-pSFG-FRBlx2.Caspase9.2A-Q.8stm.CD3zeta” registered a rapamycin concentration at which doubly transduced (CD34+CD19+) primary T cells were eliminated, flow cytometry after 24 hours of 2 nM.
